These results are taken from article PMC11166458, “Caskin2 is a novel talin- and Abi1-binding protein that promotes cell motility” (Journal of Cell Science, 2024).

No end group written: not given here.

The experiment has as its target talin-R7/R8 (residues 1358–1653) (mouse, UniProt P26039 1358-1653). Put plainly: MST; Atto488-labeled peptide at 50–200 nM, serial dilution of recombinant R7R8 talin; 20 mM Tris-HCl pH 7.5, 200 mM NaCl, 1 mM TCEP, 0.05% Tween-20; Monolith NT.115. The note with it: both partners purified.

B1: Atto488-labeled Caskin2-LD peptide (peptide, UniProt Q8WXE0 1187-1202, looked up)
peptide: STMFDALADQLDAMLD
modifications: also: Atto488 label
notes: Caskin2 C-terminal LD motif peptide; limits 1187–1202 are printed for the Caskin2-LD peptide in the legend of the structure; The text names L1183 as a contact residue of the peptide, which lies outside 1187–1202; source: synthetic peptide (MPIB Core Facility)
As usually defined, the Kd is the constant that tells how readily two partners part at equilibrium. Consider B1, for which the Kd is around 2700 nM.
